The numbers were not newly measured in doi:10.1101/2025.05.21.655333, which cites them from elsewhere.

The target in the data set is Lys287 (UniProt position 287, GGQGLKILIHV). As to the kind of experiment: kinetics. The following applies: The kcat/Km profile reports on free enzyme and free substrate.

As a reminder, the pKa is the negative logarithm of the acid dissociation constant. As to “L-6-hydroxynicotine oxidase (Pyridine-LHNO) (Paenarthrobacter nicotinovorans)”, the pKa was 9.7.
